Columns and labels:
[1] = biological target: T1, cynomolgus CD16 (cynomolgus, UniProt Q8SPW2 17-208); assay: SPR, fit Two State Reaction, Exp No 2
T1 construct: also called CyFcyRIII

[2] = biological target: T2, human CD16a (human FcγRIIIA), V isoform (human, UniProt P08637 17-208); assay: SPR, fit Two State Reaction, Exp No 2
T2 construct: also called HuFcyRIIIaV; CD16a (V176)

[3] = biological target: T3, cyno BCMA (PPB-17990) (cynomolgus, UniProt A0A2K5UD97 1-53); assay: SPR (Biacore 8K), NKCE captured by anti-human Fc, antigen as analyte, 1:1 model; Experiment No 3
T3 construct: also called cynomolgus BCMA
T3 sequence (A0A2K5UD97 entry or part of it): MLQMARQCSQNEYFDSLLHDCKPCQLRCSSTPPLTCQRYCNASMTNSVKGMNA
Procedure: (§1) Measurements were performed in multicycle kinetics experiments for each antibody using a Biacore 8K instrument. In each multicycle experiment the antibodies were captured via an anti-hum a Fc antibody immobilized on a series S CM5 sensor chip (human antibody capture kit, Cytiva, Uppsala, Catalog No. BR1008-39).
(§2) The antigens, diluted as described above (concentration range 0.1 nM to 50 nM), were injected at a flow rate of 60 μL/min for 240 sec followed by a dissociation phase of 400 sec. All analyte concentrations were run in duplicate together with multiple buffer blanks for double referencing. Regeneration of the capture surface was performed with regeneration solution (3 mol/L MgCl2) for 60 sec at 30 μL/min. Binding kinetics data were evaluated with the Biacore 8K Evaluation Software version 1.1.1.7442 using a 1:1 binding model with mass transport limitation.

[4] = biological target: T4, recombinant human BCMA (human, UniProt Q02223 1-54); assay: as above
Procedure: as §1, §2
Target sequence in this assay (Q02223 1-54 limits assumed): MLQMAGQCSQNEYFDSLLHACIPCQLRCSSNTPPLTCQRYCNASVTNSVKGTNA

[5] = biological target: T5, recombinant human NKp46 extracellular domain (Gln22-Asn255) with C-terminal 6xHis tag (human, UniProt O76036 22-255); assay: as above
T5 construct: range 22-255; also called huNKp46
T5 sequence (O76036 other isoform, or with tags, fused parts or gaps limits assumed): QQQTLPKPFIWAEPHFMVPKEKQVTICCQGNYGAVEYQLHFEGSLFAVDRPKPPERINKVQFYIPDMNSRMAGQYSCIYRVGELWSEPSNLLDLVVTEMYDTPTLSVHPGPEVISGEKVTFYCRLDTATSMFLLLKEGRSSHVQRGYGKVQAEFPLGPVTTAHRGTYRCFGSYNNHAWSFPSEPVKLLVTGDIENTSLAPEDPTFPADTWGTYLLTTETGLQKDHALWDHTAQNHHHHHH
Procedure: as §1, §2

[6] = biological target: T6, recombinant cynomolgus NKp46 extracellular domain with C-terminal Flag-M2 tag (cynomolgus, UniProt Q95JB9 22-254); assay: as above
T6 construct: range 22-254; also called cyno NKp46; not shown: C-terminal Flag-M2 tag
T6 sequence (Q95JB9 22-254): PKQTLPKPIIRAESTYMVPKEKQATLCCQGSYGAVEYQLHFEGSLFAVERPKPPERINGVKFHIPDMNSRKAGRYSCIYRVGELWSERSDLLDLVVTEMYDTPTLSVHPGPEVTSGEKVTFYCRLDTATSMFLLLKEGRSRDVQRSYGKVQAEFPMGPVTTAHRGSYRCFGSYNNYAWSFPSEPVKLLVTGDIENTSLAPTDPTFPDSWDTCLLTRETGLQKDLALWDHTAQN
Procedure: as §1, §2

[7] = biological target: T3, cyno BCMA (PPB-17990); assay: SPR (Biacore 8K), NKCE captured by anti-human Fc, antigen as analyte, 1:1 model; Experiment No 1
Procedure: as §1, §2

[8] = biological target: T4, recombinant human BCMA; assay: as above
Procedure: as §1, §2

[9] = biological target: T5, recombinant human NKp46 extracellular …; assay: as above
Procedure: as §1, §2

[10] = biological target: T6, recombinant cynomolgus NKp46 …; assay: as above
Procedure: as §1, §2

[11] = biological target: T7, cynomolgus CD32b (cynomolgus); assay: SPR, fit Steady State Affinity, Exp No 3
T7 construct: also called CyFcyRIIb

[12] = biological target: T8, human CD32b (human FcγRIIB) (human, UniProt P31994 43-217, limits assumed); assay: SPR, fit Steady State Affinity, Exp No 3
T8 construct: also called HuFcyRIIb
T8 sequence (looked up): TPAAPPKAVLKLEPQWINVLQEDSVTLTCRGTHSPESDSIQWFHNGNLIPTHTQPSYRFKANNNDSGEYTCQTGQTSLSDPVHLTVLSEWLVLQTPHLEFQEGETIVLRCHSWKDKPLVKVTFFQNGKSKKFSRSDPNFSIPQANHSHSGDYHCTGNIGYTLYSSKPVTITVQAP

[13] = biological target: T9, human CD32a (human FcγRIIA) (human, UniProt P12318 34-217, limits assumed); assay: SPR, fit Steady State Affinity, Exp No 3
T9 construct: also called HuFcyRIIa
T9 sequence (looked up): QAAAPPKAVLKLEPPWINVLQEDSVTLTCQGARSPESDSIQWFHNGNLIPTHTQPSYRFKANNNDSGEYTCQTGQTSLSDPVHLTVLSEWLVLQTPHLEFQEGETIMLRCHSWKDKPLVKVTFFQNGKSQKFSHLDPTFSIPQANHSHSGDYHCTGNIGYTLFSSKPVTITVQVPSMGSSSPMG

[14] = biological target: T10, cynomolgus CD32a (cynomolgus); assay: SPR, fit Steady State Affinity, Exp No 3
T10 construct: also called CyFcyRIIa

[15] = biological target: T11, human CD16b (human FcgRIIIB) (human, UniProt O75015 17-200, limits assumed); assay: SPR, fit Steady State Affinity, Exp No 3
T11 construct: also called HuFcyRIIIb
T11 sequence (O75015 17-200 limits assumed): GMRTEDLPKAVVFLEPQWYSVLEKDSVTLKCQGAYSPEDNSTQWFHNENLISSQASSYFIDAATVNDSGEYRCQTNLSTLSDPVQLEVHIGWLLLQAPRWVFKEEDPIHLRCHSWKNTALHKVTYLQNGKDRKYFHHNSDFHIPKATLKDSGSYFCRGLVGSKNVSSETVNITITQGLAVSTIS

[16] = biological target: T7, cynomolgus CD32b; assay: SPR, fit Steady State Affinity, Exp No 2
[17] = biological target: T9, human CD32a (human FcγRIIA); assay: SPR, fit Steady State Affinity, Exp No 2
[18] = biological target: T4, recombinant human BCMA; assay: SPR (Biacore 8K), NKCE captured by anti-human Fc, antigen as analyte, 1:1 model; Experiment No 2
Procedure: as §1, §2

T1 sequence (Q8SPW2 17-208): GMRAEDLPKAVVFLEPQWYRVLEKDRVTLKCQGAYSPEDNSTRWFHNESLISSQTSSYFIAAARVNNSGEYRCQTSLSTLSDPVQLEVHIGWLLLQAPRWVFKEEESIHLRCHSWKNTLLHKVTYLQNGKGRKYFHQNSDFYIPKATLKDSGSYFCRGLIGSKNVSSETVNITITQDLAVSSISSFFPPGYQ
T2 sequence (P08637 17-208 F176V limits assumed): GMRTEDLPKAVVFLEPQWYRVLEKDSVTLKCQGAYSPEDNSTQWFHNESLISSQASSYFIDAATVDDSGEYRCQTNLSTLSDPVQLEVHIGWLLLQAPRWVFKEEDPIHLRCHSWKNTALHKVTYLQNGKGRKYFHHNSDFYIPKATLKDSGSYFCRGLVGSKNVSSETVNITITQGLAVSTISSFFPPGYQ

B1: NKp46-BCMA_Fc-ADE-DSB NKCE (bispecific antibody, human IgG1, kappa)
light: QTVVTQEPSLTVSPGGTVTLTCASSTGTVTPSNYANWVQQKPGQAFRGLIGDNNSRPPGTPARFSASLLGGKAALTLSGVQPEDEAEYYCALWFGNQWVFGGGTKLTVLGGGGSGGGGSDIQMTQSPSSLSASVGDRVTITCRASQDISNYLNWYQQKPGKAPKLLIYYTSRLHSGVPSRFSGSGSGTDFTFTISSLQPEDIATYFCQQGNTRPWTFGGGTKVEIKGGGGSGGGGSRTVAAPSVFIFPPSDEQLKSGTASVVCLLNNFYPREAKVQWKVDNALQSGNSQESVTEQDSKDSTYSLSSTLTLSKADYEKHKVYACEVTHQGLSSPVTKSFNRGEC
heavy: QVQLVQSGAEVKKPGSSVKVSCKASGYTFSDYVINWVRQAPGQGLEWMGEIYPGSGTNYYNEKFKAKATITADKSTSTAYMELSSLRSEDTAVYYCARRGRYGLYAMDYWGQGTTVTVSSQVQLVESGGGVVQPGRSLRLSCAASGFTFSNFGMHWVRQAPGRGLEWVAVIWSDETNRYYADSVKGRFTVSRDNVKSTVYLQMNSLISEDTAVYYCARDQQYCSSDSCFTWFDPWGQGTLVTVSSASTKGPSVFPLAPSSKSTSGGTAALGCLVKDYFPEPVTVSWNSGALTSGVHTFPAVLQSSGLYSLSSVVTVPSSSLGTQTYICNVNHKPSNTKVDKKVEPKSCDKTHTCPPCPAPELLAGPDVFLFPPKPKDTLMISRTPEVTCVVVDVSHEDPEVKFNWYVDGVEVHNAKTKPCEEQYNSTYRCVSVLTVLHQDWLNGKEYKCKVSNKALPAPEEKTISKAKGQPREPQVYTLPPCRDELTKNQVSLWCLVKGFYPSDIAVEWESNGQPENNYKTTPPVLDSDGSFFLYSKLTVDKSRWQQGNVFSCSVMHEALHNHYTQKSLSLSPG
chain: DKTHTCPPCPAPELLAGPDVFLFPPKPKDTLMISRTPEVTCVVVDVSHEDPEVKFNWYVDGVEVHNAKTKPCEEQYNSTYRCVSVLTVLHQDWLNGKEYKCKVSNKALPAPEEKTISKAKGQPREPQVCTLPPSRDELTKNQVSLSCAVKGFYPSDIAVEWESNGQPENNYKTTPPVLDSDGSFFLVSKLTVDKSRWQQGNVFSCSVMHEALHNRFTQKSLSLSPG
[1]
  Kd: 9.3 nM
[2]
  Kd: 12.1 nM
[3]
  Kd: 0.3 nM
  koff: 6e-05 s⁻¹
  kon: 180000 M⁻¹ s⁻¹
[4]
  Kd: 0.3 nM
  koff: 5.7e-05 s⁻¹
  kon: 190000 M⁻¹ s⁻¹
[5]
  Kd: 12.5 nM
  koff: 0.0018 s⁻¹
  kon: 140000 M⁻¹ s⁻¹
[6]
  Kd: 17.8 nM
  koff: 0.0033 s⁻¹
  kon: 190000 M⁻¹ s⁻¹
[7]
  Kd: 0.4 nM
  koff: 7.2e-05 s⁻¹
  kon: 170000 M⁻¹ s⁻¹
[8]
  Kd: 0.2 nM
  koff: 6.1e-05 s⁻¹
  kon: 280000 M⁻¹ s⁻¹
[9]
  Kd: 11.8 nM
  koff: 0.0019 s⁻¹
  kon: 160000 M⁻¹ s⁻¹
[10]
  Kd: 16.6 nM
  koff: 0.003 s⁻¹
  kon: 210000 M⁻¹ s⁻¹
[11]
  Kd: 1300 nM
[12]
  Kd: 1420 nM
[13]
  Kd: 963 nM
[14]
  Kd: 1700 nM
[15]
  Kd: 2330 nM
[16]
  Kd: 1070 nM
[17]
  Kd: 656 nM
[18]
  Kd: 0.2 nM
  koff: 6.9e-05 s⁻¹
  kon: 320000 M⁻¹ s⁻¹

— patent US20240034816A1 (Sanofi, published 2024)
